Laboratory results: a protein production outcome set (Wang et al. 2014)

Assay: label from the status in PepcDB records

Sequence: MKKKKIWALIWRKSAFRWLLISIFTAIIISACSYNVSKDENGKVKTVKSHFTPCYVVKHKMGETCVPQNPQRIVVLAQTTLANVLALGVKPIGILGADLPTYLQQARDIQVVGEGWEPDVEKILLLKPDLILGKEYHRTQYNTLSQIAPTVLLEWNGTPSWKQHLEDVAQVLNKTDQAKSLMRNYHQRLEEFKIKMGDRLKNLQISYIDILVGYIWCDVKNSFAGTILADAGLQHPSAQEVVTKGGYITFGLETMPMDADGDVIFTSHWMDEDGAKALKRNQNNPLWRKLKAVEQNQVYVVNRHFWRGSNILAAHKVIDDLFNYLVDAKS
- protein production: failed

Sequence: MKKKQVLAVSSALMIGTTTALTGLPTPVMAQENTEVVQEAVVEENKTEQVPVEQKTENAEVQENITDKEQEETAENAETLKEESTKQETPATPEKEVVTEDKTVEASKNTEVKAGSIAIDETHFPDKVFREQIIAEFDKDGDSVLSVDEISKAQFLNLHGMKTISSLEGIQYLTNLQSLDVSTTSVSDLSPVKNSSLKRLDCRSSKVGSVDLTRYPNLEAFLCDNTSINSLDVSKNEKLNTLFADSTSISNLDVTNNPNLEQLSCSNTGLMELDVTHNPQLVTLDIGDTKVKTLDISKNPNLKQLSCYMTNIAELDVTKNTKLTRLFCHDTTIKKLDLSNNLELEMLRCGEIFEQGIRGLDISKNTKIKKLICDDLYWLNVGENKVLENNHAFVGNGYIDIKGNKIDLKKDVEQGIDISKVKVTANGTLDKDTGIITVDDVKKPVTYEYDCGTYKDGNVVLKVELSLNSQGEDNTAPTISANDVTLNVGDTFDPLANVTATDKEDGTITLTKDNIVANDVDTSKAGTYHVTYKVTDKNGASVKKTITVTVKQNTGDLNSAPIISANDVTLNVGDTFDPLANVTATDKEDGTIILTKDNIIANDVDTSKAGTYHVTFRVVDKNGAITEKTITVTVKEKATNKPVSPQQPQKPSKPTTPTKPSGQKNPVKTGDMTNVGLFTSMFAGSTGVLAVLFGKKRKRNKNN
- protein production: failed

Sequence: MKKLLLTVIQIALLFIFARLINWVTALLHINIPGSIIGIVILFTLLHFNIIKLEWIELGAAWLLGELLLFFIPSAVGVIEYGDIMSKFGVSILLVVIISTFVVMVSTGTLTQLIAKRKEKKHTCSSEL
- protein production: failed

Sequence: MKKLLTVTFFTGMLTFFKMISGFIISKIVAIYTGPSGIVLFGQIQSIVSALNGVINSPVGPGIVRFTAENHRKGLEHCYKWWIAGLSWVCIISAIIIPLSITLSSHIAFWTLGSEKYSWVIILTACLLPLTAIGTFISSVINGFQNYKVYVLLGIISAFLSLIIMIALIVFGKINGALLAISVQNALIGGVMIIYASSQPWFNLRWLYGRVHKTYYKDIQRYIVMAITSAIVVPGSLIIVRNIIIHYVGWTEAGYWQAVWKISETYLAIITIALSTYYLPRLSSLSQKDDIIKEISSSLKIIIPLVMFFSMGIYLSRDFIISLLFTKEFLGARMLFQVQLIGDILKIASWLYAYVMISKGMTQLFVISEVLFSLLFISFSLVFIRCYGLIGVTYAYCLNYFIYLVFSVVVVKRAKYD
- protein production: failed

Sequence: MKKLSFFLIATLSLGACSTATSPTGRHQVFSGVSQQQLNQLGEQAFVEIKAKEKISGNVRQNAYVRCVVDALVTELPLQWRHVKWETVLFLNEEPNAFALPGGKVGVNTGIFRAAKNQEQLAAVLGHEIGHVVSRHHEERITWQLGTQAGLGLLGVLAGTAYGDSAATAVNQIGGLTAQAAFLLPGSRTQEREADIVGQRLMAQAGFDPIQAVYLWKNMLAIAGQRPPQWLSTHPDPTNRIRQLEQQSAVLASVYAQARDAGRVPHCSPAALEHHHHHH
- protein production: failed

Sequence: MKKLTSLFPLLFLIPLLASCAEEKQVYIVYFGEHKGDKAFHEIEEHHHSYLQSVKESEEDARASLLYSYKHSINGFAAELTPDQASKLEKLAEVVSVFKSHPRKYEAHTTRSWEFVGLEEEETDSDVPRRKNDADDRFRVGRNFLKKAKHGDGIIVGVLDSGVWPESKSFNDKGMGPVPKSWKGICQTGVAFNSSHCNRKIIGARYYVKGYERYYGAFNATANKDFLSPRDPDGHGSHTASTAVGRRVLGASALGGFAKGSASGGAPLARLAIYKACWAKPNAEKVEGNICLEEDMLAAIDDAIADGVHVISISIGTTEPFPFTQDGIAMGALHAVKRNIVVAASAGNSGPKPGTLSNLAPWIITVGASTLDRAFVGGLVLGNGYTIKTDSITAFKMDKFAPLVYASNVVVPGIALNETSQCLPNSLKPELVSGKVVLCLRGAGSRIGKGMEVKRAGGAGMILGNIAANGNEVPSDSHFVPTAGVTPTVVDKILEYIKTDKNPKAFIKPGKTVYKYQAAPSMTGFSSRGPNVVDPNILKPDITAPGLYILAAWSGADSPSKMSVDQRVAGYNIYSGTSMSCPHVAGAIALLKAIHPKWSSAAIRSALMTTAWMTNDKKKPIQDTTGLPANPFALGSGHFRPTKAADPGLVYDASYRAYLLYGCSVNITNIDPTFKCPSKIPPGYNHNYPSIAVPNLKKTVTVKRTVTNVGTGNSTSTYLFSVKPPSGISVKAIPNILSFNRIGQKQRFKIVIKPLKNQVMNATEKGQYQFGWFSWTDKVHVVRSPIAVSLA
- protein production: failed

Sequence: MKKMKTLTLFLSLLFSFPFVLSAQMVGETLQKVSAALDNRQWDQAVTLFRQAVNTNVEKAEMFYWTGVDKSLEVSSRIGRELAAYYKKSRSYDKAYLFYKELLQKSPNDVNCLVSCAEMEVCRGRESEALETYRKVLSLDADNLAANIFIGNYLYLKAEREKKQLEADYKKISAPTRMQYARYRDGLSRVMSTGYGKAREYLQKVISQFPSTEAQKTLERIKLIEKEVNR
- protein production: failed

Sequence: MKKPNHSGSGQIRIIGGQWRGRKLPVPDSPGLRPTTDRVRETLFNWLAPVIVDAQCLDCFAGSGALGLEALSRYAAGATLIEMDRAVSQQLIKNLATLKAGNARVVNSNAMSFLAQKGTPHNIVFVDPPFRRGLLEETINLLEDNGWLADEALIYVESEVENGLPTVPANWSLHREKVAGQVAYRLYQREAQGESDAD
- protein production: not failed

Sequence: MKKRAIVAVIVLLLIGLDQLVKSYIVQQIPLGEVRSWIPNFVSLTYLQNRGAAFSILQDQQLLFAVITLVVVIGAIWYLHKHMEDSFWMVLGLTLIIAGGLGNFIDRVSQGFVVDMFHLDFINFAIFNVADSYLTVGVIILLIAMLKEEINGN
- protein production: failed

Sequence: MKKRILSAVLVSGVTLGAATTVGAEDLSTKIAKQDSIISNLTTEQKAAQNQVSALQAQVSSLQSEQDKLTARNTELEALSKRFEQEIKALTSQIVARNEKLKNQARSAYKNNETSGYINALLNSKSISDVVNRLVAINRAVSANAKLLEQQKADKVSLEEKQAANQTAINTIAANMAMAEENQNTLRTQQANLEAATANLALQLASATEDKANLVAQKEAAEKAAAEALAQEQAAKVKAQEQAAQQAASVEAAKSAITPAPQATPAAQSSNAIEPAALTAPAAPSARPQTSYDSSNTYPVGQCTWGAKSLAPWAGNNWGNGGQWAYSAQAAGYRTGSTPMVGAIAVWNDGGYGHVAVVVEVQSASSIRVMESNYSGRQYIADHRGWFNPTGVTFIYPHLEHHHHHH
- protein production: failed

Sequence: MKKSSILILIIICLVGCKKGSNETTITGEIKGLGTDTLYLYGMDELYDRIDTIYVENDKFSYTTSVDTITSAYLLLKNRIEYPVFLDKGNKIKIKGDTINLNFLTISGNIYNEEFTDFQKALEDPADPSEKAGEETVDKRITVEKANTAEEMAEEFILQHHSSYVSLYLLDKYFVQKETPDFSKIKKLVEVMTGVLQDKPYIERLNETITQAEKSEIGKYAPFFSLPNAKGEKITRSSDAFKQKSLLINFWASWNDSISQKQSNSELREIYKKYKKNKYIGMLGISLDVDKQQWKDAIKRDTLDWEQVCDFGGLNSEVAKQYSIYKIPANILLSSDGKILAKNLRGEELKKKIENIVEEATEKEKKNKQKK
- protein production: failed

Sequence: MKKTLKILAGFVAVVIIIALGIFTSRKLYQNHVDKINHIGKVMDSYKGVKVYYNGKKYAESHGKNYSKDGYYYGYKWQVEYIKRFYYEAKGHSMPNGFGNAKDFFDPKVGQGKLNKDRGLFQYKNGENEKPKADDILVFTDTKYGHVVIVTKVTDDTVEVIQQNMGNKTRDQFKLEYENGKYFVCGKRKPKGWLRKGLEHHHHHH
- protein production: not failed

Sequence: MKKTLLAIVAVSALSACRQAEEGPPPLPRQISDRSVGHYCSMNLTEHNGPKAQIFLNGKPDQPVWFSTIKQMFGYTKLPEEPKGIRVIYVTDMGNVTDWTNPNADTEWMDAKKAFYVIDSGFIGGMGAEDALPFGNKEQAEKFAKDKGGKVVGFDDMPDTYIFK
- protein production: failed

Sequence: MKKVFITTGTEHYLRQLMENYIGENVTLLQNFSQSLLYQESTGEKLFQEGKEYRVLQSSGSLKGFGIVVFEYIQLRDEEIPIFLQMYQHASLHFSETPGLQSTKLTKAMNTNQFLIVSFWDSEVFFQEWKKTPLHKEITSIMKKNNTQVGFSHEDIYHYPEFSHDAK
- protein production: not failed

Sequence: MKKWIKIVLYSLLAILIVGSITFLSWSQFTYKPTKEALSLVDDKKDEDYIVFGEKDAKIGVIFYQGAKVEAEAYSYLGEALAKDGHFVVMPKLPLNLALFGINEVDSVIEQYPEVQKWYVAGHSMGGAMISRYAFQHEEKVDGIIFLGSYPADDFSTKSIPMLSIYGEVDALATVEKIENNKKFMSKNTTMHMIKGGNHAHFGMYGEQKGDNASLITAKAQRDETVKVIEQWLLEQ
- protein production: failed

Sequence: MKKWLLAAGLGLALATSAQAADKIAIVNMGSLFQQVAQKTGVSNTLENEFKGRASELQRMETDLQAKMKKLQSMKAGSDRTKLEKDVMAQRQTFAQKAQAFEQDRARRSNEERGKLVTRIQTAVKSVANSQDIDLVVDANAVAYNSSDVKDITADVLKQVK
- protein production: not failed

Sequence: MKKWRFLGIDDSFDDRKCCVVGCVTCGGYVEGFLYTEIDIDGLDATDKLISMVRRSKFREQIKCIFLPGITLGGFNLVDIQRVYRETKIPVVVVMRRKPDMEEFDSAMRNLENYELRRKIVEVAGEIHRIGDIYIQTAGLTPSEAEKLVKASLIKGNMPEPVRISHLVASAIIHGESRGKA
- protein production: not failed

Sequence: MKLASGFLVLWLSLGGGLAQSDTSPDTEESYSDWGLRHLRGSFESVNSYFDSFLELLGGKNGVCQYRCRYGKAPMPRPGYKPQEPNGCGSYFLGLKVPESMDLGIPAMTKCCNQLDVCYDTCGANKYRCDAKFRWCLHSICSDLKRSLGFVSKVEAACDSLVDTVFNTVWTLGCRPFMNSQRAACICAEEEKEEL
- protein production: failed

Sequence: MKLAYWMYAGPAHIGTLRVATSFKNVHAIMHAPLGDDYFNVMRSMLSRERDFTPVTTSVVDRHVLARGSQEKVVDNITRKDAEERPDLIVLTPTCTSSILQEDLENFVERAQLEAKGDVLLADVNHYRVNELQAGDRTLHQIVQYYIEKARKKGELPEGKTAKPSVNIIGISTLGFHNNHDCTELKRLMADLGIEVNAVIPEGASVHELKNLPRAWFNLVPYRELGLMTANYLEKEFGTPCIDIVPMGVVETARCIRKIQEVINAQGADVNYEDYINEQTLYVSQAAWFSRSIDCQNLTGKKAVVFGDNTHAAALTKILSREMGIHVVWAGTYCKYDADWFREQVSEYCDEVLITEDHGEIGDAIARVEPSAIFGTQMERHVGKRLDIPCGVIAAPIHVQNFPIGYKPFLGYEGTNQITDLIYNSFTLGMEDHLLEIFGGHDTKEVITKGISAGSDLSWTKDGLAELNKIPGFVRGKVKRNTEKFARDRGFKDISAEVLYAAKEAVGA
- protein production: failed

Sequence: MKLCFNEATTLENSNLKLDLELCEKHGYDYIEIRTMDKLPEYLKDHSLDDLAEYFQTHHIKPLALNALVFFNNRDEKGHNEIITEFKGMMETCKTLGVKYVVAVPLVTEQKIVKEEIKKSSVDVLTELSDIAEPYGVKIALEFVGHPQCTVNTFEQAYEIVNTVNRDNVGLVLDSFHFHAMGSNIESLKQADGKKIFIYHIDDTEDFPIGFLTDEDRVWPGQGAIDLDAHLSALKEIGFSDVVSVELFRPEYYKLTAEEAIQTAKKTTVDVVSKYFSM
- protein production: not failed
